To fix the notation:
B1: activated C1s–CCP1–CCP2–SP [human] / ElpB_(182–378) [B. burgdorferi] (parent)
chain 1: MPCPKEDTPNSVWEPAKAKYVFRDVVQITCLDGFEVVEGRVGATSFYSTCQSNGKWSNSKLKCQPVDCGIPESIENGKVEDPESTLFGSVIRYTCEEPYYYMENGGGGEYHCAGNGSWVNEVLGPELPKCVPVCGVPREPFEEKQRIIGGSDADIKNFPWQVFFDNPWAGGALINEYWVLTAAHVVEGNREPTMYVGSTSVQTSRLAKSKMLTPEHVFIHPGWKLLEVPEGRTNFDNDIALVRLKDPVKMGPTVSPICLPGTSSDYNLMDGDLGLISGWGRTEKRDRAVRLKAARLPVAPLRKCKEVKVEKPTADAEAYVFTPNMICAGGEKGMDSCKGDSGGAFAVQDPNDKTKFYAAGLVSWGPQCGTYGLYTRVKNYVDWIMKTMQENSTPRED
chain 2: QERKAKAEKEAKEKAERQKQEEQQKRKAEKEREEQRKEAEKRQVDNEIRTLTGKIDEINRNIDVIKEQTSVGAQGVIDRITGPVYDDFTDGNKAIYKTWGDLEDDNDEGLGKLLKELSDTRHNLRTKLNEGNKAYIIDTRSTEPQLKENVSVSEIKSDLDELKSKLEEVKEYLEDKDNFEEIKEYVAGSEDNYDEED

The variants in this assay derive from B1. Put plainly: SPR. The following applies: with ElpB_(182–378) [B. burgdorferi]; steady-state response at the highest analyte concentration plotted (about 5e-7 M on the x axis); ElpB182-378 immobilized, C1s construct injected; parent: 79; read off a plot.
chain 1 MPCPKEDTPNSVWEPAKAKYVFRDVVQITCLDGFEVVEGRVGATSFYSTCQSNGKWSNSKLKCQPVDCGIPESIENGKVEDPESTLFGSVIRYTCEEPYYYMENGGGGEYHCAGNGSWVNEVLGPELPKCVPVCGVPREPFEEKQRIIGGSDADIKNFPWQVFFDNPWAGGALINEYWVLTAAHVVEGNREPTMYVGSTSVQTSRLAKSKMLTPEHVFIHPGWKLLEVPEGRTNFDNDIALVRLKDPVKMGPTVSPICLPGTSSDYNLMDGDLGLISGWGRTEAADRAVALAAARLPVAPLRKCKEVKVEKPTADAEAYVFTPNMICAGGEKGMDSCKGDSGGAFAVQDPNDKTKFYAAGLVSWGPQCGTYGLYTRVKNYVDWIMKTMQENSTPRED [chain 1 K284A R285A R290A K292A]: the response is 7 RU.
As for chain 1 MPCPKEDTPNSVWEPAKAKYVFRDVVQITCLDGFAVVEGRVGATSFYSTCQSNGKWSNSKLKCQPVACGIPESIENGKVEDPESTLFGSVIRYTCEEPYYYMENGGGGEYHCAGNGSWVNEVLGPELPKCVPVCGVPREPFEEKQRIIGGSDADIKNFPWQVFFDNPWAGGALINEYWVLTAAHVVEGNREPTMYVGSTSVQTSRLAKSKMLTPEHVFIHPGWKLLEVPEGRTNFDNDIALVRLKDPVKMGPTVSPICLPGTSSDYNLMDGDLGLISGWGRTEAADRAVALAAARLPVAPLRKCKEVKVEKPTADAEAYVFTPNMICAGGEKGMDSCKGDSGGAFAVQDPNDKTKFYAAGLVSWGPQCGTYGLYTRVKNYVDWIMKTMQENSTPRED [chain 1 E35A D67A K284A R285A R290A K292A], the response turned out to be 0 RU.

For the origin of these results see publication PMC9637899.
